Data: paper PMC6279836, “The LPG1x family from Leishmania major is constituted of rare eukaryotic galactofuranosyltransferases with unprecedented catalytic properties” (Scientific Reports, 2018)

Tests used:
Test in all cases: purified protein
Conditions in all cases: donor substrate; acceptor methyl alpha-D-mannopyranoside
[1] = test system: O=c1ccn([C@@H]2O[C@H](COP(=O)(O)OP(=O)(O)O[C@H]3O[C@@H]([C@H](O)CO)[C@H](O)[C@H]3O)[C@@H](O)[C@H]2O)c(=O)[nH]1
[2] = test system: O=c1ccn([C@@H]2O[C@H](COP(=O)(O)OP(=O)(O)O[C@H]3O[C@H](CO)[C@H](O)[C@H](O)[C@H]3O)[C@@H](O)[C@H]2O)c(=O)[nH]1
[3] = test system: O=c1ccn([C@@H]2O[C@H](CO[P@@](=O)(O)O[P@@](=O)(O)O[C@H]3O[C@H](CO)[C@@H](O)[C@H](O)[C@H]3O)[C@@H](O)[C@H]2O)c(=O)[nH]1
[4] = test system: Nc1nc2c(ncn2[C@@H]2O[C@H](COP(=O)(O)OP(=O)(O)O[C@H]3O[C@H](CO)[C@@H](O)[C@H](O)[C@@H]3O)[C@@H](O)[C@H]2O)c(=O)[nH]1
[5] = test system: Nc1nc2c(ncn2[C@@H]2O[C@H](COP(=O)(O)OP(=O)(O)O[C@H]3O[C@H](CO)[C@@H](O)[C@H](O)[C@H]3O)[C@@H](O)[C@H]2O)c(=O)[nH]1

Row | Substance | Km [1] [mM] | kcat [1] [s⁻¹] | kcat/Km [1] [M⁻¹ s⁻¹] | Km [2] [mM] | kcat [2] [s⁻¹] | kcat/Km [2] [M⁻¹ s⁻¹] | Km [3] [mM] | kcat [3] [s⁻¹] | kcat/Km [3] [M⁻¹ s⁻¹] | Km [4] [mM] | kcat [4] [s⁻¹] | kcat/Km [4] [M⁻¹ s⁻¹] | Km [5] [mM] | kcat [5] [s⁻¹] | kcat/Km [5] [M⁻¹ s⁻¹]
1 | LPG1G (Leishmania major) | 0.03 ± 0.04 | 205.9 ± 0.967 | 6.56e+06 | 0.005 ± 0.001 | 2.2 ± 0.167 | 466000 | – | – | – | – | – | – | – | – | –
2 | LPG1R (Leishmania major) | 0.55 ± 0.68 | 10.6 ± 1.27 | 19100 | – | – | – | 0.038 ± 0.005 | 5.05 ± 0.55 | 133000 | – | – | – | – | – | –
3 | LPG1L (Leishmania major) | 0.02 ± 0.02 | 88.3 ± 1.05 | 4.85e+06 | 0.05 ± 0.01 | 7.8 ± 0.833 | 165000 | 0.006 ± 0.001 | 3.42 ± 0.433 | 578000 | 0.032 ± 0.005 | 1.43 ± 0.1 | 47700 | 0.043 ± 0.005 | 0.4 ± 0.05 | 8330
4 | LPG1 (Leishmania major) | 0.07 ± 0.07 | 512.5 ± 1.03 | 6.83e+06 | 0.23 ± 0.02 | 5.33 ± 0.367 | 23300 | – | – | – | – | – | – | – | – | –
